Measured values reported in the nanobody polyreactivity screen of Harvey et al. (2022).

Test: yeast display, Sf9 membrane polyspecificity reagent, FACS + sequencing; frameworks hold sequencing errors
Outline: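 Synthetic nanobody libraries on Saccharomyces cerevisiae BJ5465 were galactose-induced for 36–48 hours, stained 1 hour at 4 °C with 10% biotinylated, detergent-solubilized Sf9 membrane reagent and enriched on streptavidin microbeads. FACS then separated cells into low and high (top ~1%) gates by anti-HA (expression) and streptavidin (reagent binding) fluorescence. Genes were colony-PCR amplified, MiSeq 2 × 250 sequenced and CDR-length filtered. A clone's polyreactivity label is that of its gate of origin.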

| Sequence | polyreactivity (PSR sort gate) |
| --- | --- |
| QVQLVESGGGLVQAGGSLRLSCAASGRTFGIYAMGWYRQAPGKERELVATISWRGGSTYYADSVKGRFTISRDNAKNSVYLQMNSLKPEDTAVYYCAAGYYPYWGQGTQVTVSS | low polyreactivity |
| QVQLVESGGGLVQAGGSLRLSCAASGRTFGIYAMGWYRQAPGKERELVATISWRGGSTYYADSVKGRFTISRDNAKNTVYLQMNSLKPEDTAVSYCAAGYYPYWGQGTQVTVSS | low polyreactivity |
| QVQLVESGGGLVQAGGSLRLSCAASGRTFGKNAMGWYRQAPGKEREFVAAITSRGGSTYYADSVKGRFTISRDYAKNTVYLQMNSLKPEDTAVYYCNREYKRPSQRTEHYYWGQGSQVTVSS | low polyreactivity |
| QVQLVESGGGLVQAGGSLRLSCAASGRTFGKYAMGWYRQAPGKERELVATITRTARTNYADSVKGRFTNSRDNAKNTVYFQMNSLKPEDTAVYYCAKGWPAIYGTYDYWGQGTQVTVSS | high polyreactivity |
| QVQLVESGGGLVQAGGSLRLSCAASGRTFGLNAMGWYRQAPGKERELVAAITSGGSTYYADSVKGRFTITRDNAKTTVYLQMNSLKPEDTAVYYCAAAYFDFWGWLHDYWGQGTQVTVSS | low polyreactivity |
| QVQLVESGGGLVQAGGSLRLSCAASGRTFGNYAMGWYRQAPAKESELVAAITGRGGSTHYADSVKGRFTISRDNAKYTVYLQMNSLKPEDTAVYDCAADYRYNRGITSNKDYDYWGQGTQVTVSS | low polyreactivity |
| QVQLVESGGGLVQAGGSLRLSCAASGRTFGNYAMGWYRQAPGKERELVAAITSSGGTTYYADSVKGRFTISRDYAKNTVYLQMNSLKPEDTAVYYCAARHYPRNSWGYDYWGQGTQVNVSS | high polyreactivity |
| QVQLVESGGGLVQAGGSLRLSCAASGRTFGPYAMGWYRQAPGKERELVAAISRSGGRTYYADSVKGRFSISRDNAKNTVYLQMNSLKPEETAVYYCNALYLSTRSGDYWGQGSQVTVSS | high polyreactivity |
| QVQLVESGGGLVQAGGSLRLSCAASGRTFGPYARGWYIQAPGKERELVAAISWIGTSTYYADSVKGRFTISRDNAKNTVYLQMNSLKPEDTAVYYCAALEKNYTTKFYYWGQVTQVTVSS | high polyreactivity |
| QVQLVESGGGLVQAGGSLRLSCAASGRTFGPYVMGWYRQAPGKERELVAAISFSGGSTYYADSVKGRFTISRDNAKNTVYLQMNSLKPEDTAVYYCAAPATRPYYTGYDYWGQGTQVTVSS | high polyreactivity |
| QVQLVESGGGLVQAGGSLRLSCAASGRTFGPYVMGWYSQAPGKDRELVAVIRWSGVSTYYADSVKGRFTISRDKAKNTVYLLRNSMTPEDTAVDYCNAVRPYRLASYDYWGQGTQVTVSS | high polyreactivity |
| QVQLVESGGGLVQAGGSLRLSCAASGRTFGQNAMGWYRQAPGKERELVATITLNGGNTYYADSVKGRFTISRDNAKNTVYLQMNSLKPEDTAVYYCNAVPSWYRYRPPRFDYWGQGTQVTVSS | low polyreactivity |
| QVQLVESGGGLVQAGGSLRLSCAASGRTFGQYAMGWYRQAPGKEREFVAGITWSGGSTSYADSVKGRFTISRDNAKNTVYLQMNSLKPEDTAVYYCIAVYWKPSLEYGYWGQGTQVTVSS | high polyreactivity |
| QVQLVESGGGLVQAGGSLRLSCAASGRTFGQYAMGWYRQAPGKERELVAAISTRGGSTYYADSVKGRFTISRDNAKNTVYLQLNSLKPEDTAVYYCAARQGWFAGYEYWGQGTQVTVSS | low polyreactivity |
| QVQLVESGGGLVQAGGSLRLSCAASGRTFGQYTMGWYRQAPGKERELVAGITRSGSRTYYADSVKGRFTISRDNAKNTVYLQMNSLKPEDTAVYYCAARVYKSQGGLPEYDYWGQGTQVTVSS | high polyreactivity |
| QVQLVESGGGLVQAGGSLRLSCAASGRTFGQYVMGWYRQAPGKERELVAAIRSGGSTYYADSVKGRFTISRDNAKNTVYLQMNSLKPEDTAVYYCAKETYYGTDNFGQVGGEMDYWGQGTQVTVSS | low polyreactivity |
| QVQLVESGGGLVQAGGSLRLSCAASGRTFGRNAMGWYRPAPGKERELVATITRRGGSTYYADSVKGRFTISRDNAKNTVYLQMYSLKPEDTAVYYCNAGIWLGSFRQRFYYWGQGTQVTVSS | high polyreactivity |
| QVQLVESGGGLVQAGGSLRLSCAASGRTFGRNAMGWYRQAPGKERELVAAINSGGSTKYADSVKGRFTISRDNAKNTVYLQMNSLKPEDTAVYYCARRGGFSYYYWGQGTQVTVSS | high polyreactivity |
| QVQLVESGGGLVQAGGSLRLSCAASGRTFGRNTMGWYRQAPGKERELVAAIDWSGGSTYYADSVKGRFTISRDNAKNTVYLQMNSLKPEDTAVYYCAAASRYPVNYYYWGQGTQVTVSS | high polyreactivity |
| QVQLVESGGGLVQAGGSLRLSCAASGRTFGRNTMGWYRQAPGKERELVASITRSSGSTYYADSVKGRFTISRDNAKNTVYLQMNSLKPEDTAVSYCNARATSGGDYWGQGTQVTVSS | high polyreactivity |
| QVQLVESGGGLVQAGGSLRLSCAASGRTFGRYAKGWYRQAPGKERELVAAISWSGGSTYYADSVKGRFTISRDNAKNTVYLQMNSLKPEDTAVYYCAAVTTDGVYAFDYWGQGTQVTVSS | low polyreactivity |
| QVQLVESGGGLVQAGGSLRLSCAASGRTFGRYAMGWYRQAHGKERELVAAISWSGGSTYYADSVKGRFTISRDNAKNTVYLQMNNLKPEDTAVYYCAAVTTDGVYAFDYWGQGTQVTVSS | low polyreactivity |
| QVQLVESGGGLVQAGGSLRLSCAASGRTFGRYAMGWYRQAPGKERELVAAITRSGSSTYYADSVKGRFTISRDNAKNTVYLQMNSLKPEDTAVYYCAALYGPFYSTGEYWGQGTQVTVSS | high polyreactivity |
| QVQLVESGGGLVQAGGSLRLSCAASGRTFGRYAMGWYRQAPGKERELVAAITWSGGSTYYADSVKGRFTISRDYAKNTVYLQMNSLKPEDTAVYYCAAARVYFGDLFVVYYFIQYDYWGQGTQVTVSS | low polyreactivity |
| QVQLVESGGGLVQAGGSLRLSCAASGRTFGRYAMGWYRQAPGKESELVAAISWTGGRTYYADSVKGRFTISRDNAKNTVYLQMNSLKPEDTAVYYGAALYDRIPAASRGYDSWGQVTQVTVSS | high polyreactivity |
| QVQLVESGGGLVQAGGSLRLSCAASGRTFGRYTMGLYRQAPGKERELVAAITYSGGSTYYADSVKGRFTISRDNAKNTVYFQMNSLKPVDTAVYYCADEWGYDWYRYGYWGQGTQVTVSS | low polyreactivity |
| QVQLVESGGGLVQAGGSLRLSCAASGRTFGRYVMGWYIQAPGKERELVAAIRWSGGTTYYADSVKGRFTISRDNAKNTVYLQMNSLKPEDTAVYYCAARWGPYYGGVRYGYWGQGTQVTVSS | high polyreactivity |
| QVQLVESGGGLVQAGGSLRLSCAASGRTFGSNAMGWYRQAPGKERELVAAISGRTDSTYYADSVKGRFTISRDNAKNTVYLQMNSLKPEDTAVFYCAADSGDVLYYYIRYNYWGQGTQVTVSS | low polyreactivity |
| QVQLVESGGGLVQAGGSLRLSCAASGRTFGSNAMGWYRQAPGKERELVAAISSSDSTNYADSVKGRFTISRDNAKNTVYLQMNSLKPEDTAVYYCNAGHPVRSPGYDYWGQGTQVTVSS | low polyreactivity |
| QVQLVESGGGLVQAGGSLRLSCAASGRTFGSNTMGWYRQAPGKERELVAAISGTGTSTYYADSVKGRFTISRDNAKNTVYLQMNSLKPEDTAVYYCAAGWYKYLFQPHDYWGQGTQVTVSS | low polyreactivity |
